Measured values as given in patent US6900299 (UNIVERSITY OF SOUTH FLORIDA, dated 2005).

B1: RSV-G fused to the GAL4 DNA-binding domain (pM vector) (other)
chain: MKLLSSIEQACDICRLKKLKCSKEKPKCAKCLKNNWECRYSPKTKRSPLTRAHLTEVESRLERLEQLFLLIFPREDLDMILKMDSLQDIKALLTGLFVQDNVNKDAVTDRLASVETDMPLTLRQHRISATSSSEESSNKGQRQLTVSMSKNKDQRTAKTLERTWDTLNHLLFISSCLYKLNLKSVAQITLSILAMIISTSLIIAAIIFIASANHKVTPTTAIIQDATSQIKNTTPTYLTQNPQLGISPSNPSEITSQITTILASTTPGVKSTLQSTTVKTKNTTTTQTQPSKPTTKQRQNKPPSKPNNDFHFEVFNFVPCSICSNNPTCWAICKRIPNKKPGKKTTTKPTKKPTLKTTKKDPKPQTTKSKEVPTTKPTEEPTINTTKTNIITTLLTSNTTGNPELTSQMETFHSTSSEGNPSPSQVSTTSEYPSQPSSPPNTPRQ
notes: also called cDNA construct expressing G; RSV-G gene product

Experiments:
[1] = molecular target: human ICAM-1 on cells (HEp-2, NHBE, A549, U937) (human) (UniProt P05362); assay: cell-based or functional assay
[2] = molecular target: T1, human ICAM-1 fused to the VP16 activation domain (pVP16 vector) (herpes simplex virus; human, UniProt P05362 28-532); assay: mammalian two-hybrid assay in NIH3T3 cells, CAT reporter (CAT activity similar to the basal level)
T1 construct: Order of the parts follows the usual pVP16 layout; also called ICAM-1 (two-hybrid construct)
T1 sequence (P05362 28-532 limits assumed): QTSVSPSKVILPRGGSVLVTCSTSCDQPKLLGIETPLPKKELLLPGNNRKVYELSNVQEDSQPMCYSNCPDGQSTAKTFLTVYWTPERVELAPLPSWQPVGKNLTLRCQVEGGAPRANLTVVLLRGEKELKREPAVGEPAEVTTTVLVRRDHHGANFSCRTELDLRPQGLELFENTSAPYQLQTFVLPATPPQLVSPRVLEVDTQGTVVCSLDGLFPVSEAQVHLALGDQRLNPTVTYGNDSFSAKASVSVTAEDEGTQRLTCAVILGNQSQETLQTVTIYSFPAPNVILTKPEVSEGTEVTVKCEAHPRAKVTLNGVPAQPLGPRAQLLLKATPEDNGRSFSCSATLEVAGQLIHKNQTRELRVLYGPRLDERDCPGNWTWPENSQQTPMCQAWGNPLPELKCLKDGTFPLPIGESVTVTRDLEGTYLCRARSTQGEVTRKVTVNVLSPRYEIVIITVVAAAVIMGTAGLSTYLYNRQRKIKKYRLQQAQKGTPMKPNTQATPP

Sequence of human ICAM-1 on cells (HEp-2, NHBE, A549, U937) (human) (P05362 28-532): as the sequence (P05362 28-532 limits assumed) above

| Molecule | inhibition of RSV N gene mRNA in HEp-2 cells (RT-PCR) at 400 µg of mAb/ml [1] [%] | inhibition of RSV infection of HEp-2 cells (immunofluorescence, percent infected cells) at 400 µg/ml [1] [%] | reduction in RSV infection of A549 cells at 400 µg of mAb/ml [1] [%] | reduction in RSV infection of NHBE cells at 400 µg of mAb/ml [1] [%] | binding result [2] |
| --- | --- | --- | --- | --- | --- |
| mouse anti-human ICAM-1 mAb (BBA 4) (R & D Systems) (antibody) | 70 | 96 | 67 | 54 | – |
| B1 | – | – | – | – | no binding |
